{"source": "patent US6017886A", "about": "“Use of NDF peptide as growth factor for sensory epithelium” (Amgen Inc., priority 1999, dated 2000)", "molecules": {"B1": {"name": "GDNF: recombinant derived glial-derived neurotrophic factor (GDNF) (protein, UniProt P39905 78-211, looked up)", "Glial cell line-derived …": "SPDKQMAVLPRRERNRQAAAANPENSRGKGRRGQRGKNRGCVLTAIHLNVTDLGLGYETKEELIFRYCSGSCDAAETTYDKILKNLSRNRRLVSDKVGQACCRPIAFDDDLSFLDDNLVYHILRKHSAKRCGCI"}, "B2": {"name": "FGF-10: recombinant derived FGF-10 (protein, UniProt O15520 38-208, looked up)", "Fibroblast growth factor 10": "QALGQDMVSPEATNSSSSSFSSPSSAGRHVRSYNHLQGDVRWRKLFSFTKYFLKIEKNGKVSGTKKENCPYSILEITSVEIGVVAVKAINSNYYLAMNKKGKLYGSKEFNNDCKLKERIEENGYNTYASFNWQHNGRQMYVALNGKGAPRRGQKTRRKNTSAHFLPMVVHS"}, "B3": {"name": "KGF: recombinant derived keratinocyte growth factor (KGF) (protein, UniProt P21781 32-194, looked up)", "Fibroblast growth factor 7": "CNDMTPEQMATNVNCSSPERHTRSYDYMEGGDIRVRRLFCRTQWYLRIDKRGKVKGTQEMKNNYNIMEIRTVAVGIVAIKGVESEFYLAMNKEGKLYAKKECNEDCNFKELILENHYNTYASAKWTHNGGEMFVALNQKGIPVRGKKTKKEQKTAHFLPMAIT"}, "B4": {"name": "CNTF: recombinant derived ciliary-derived neurotrophic factor (CNTF) (protein, UniProt P26441 1-200, looked up)", "Ciliary neurotrophic factor": "MAFTEHSPLTPHRRDLCSRSIWLARKIRSDLTALTESYVKHQGLNKNINLDSADGMPVASTDQWSELTEAERLQENLQAYRTFHVLLARLLEDQQVHFTPTEGDFHQAIHTLLLQVAAFAYQIEELMILLEYKIPRNEADGMPINVGDGGLFEKKLWGLKVLQELSQWTVRSIHDLRFISSHQTGIPARGSHYIANNKKM"}}, "system": "utricular epithelium from seven day-old rats", "assay": "BrdU incorporation (mitogenic activity) in primary culture of infant rat utricular sensory epithelium", "assay_type": "cell-based", "conditions": "50 ng/ml, seventy-two hours culture, infant (seven day-old) rat epithelium; control 50±7", "protocol": "Sensory edithelial cells obtained from utricles in the inner ear of both seven day-old (infant) rats and six week-old (adult) rats were isolated with the use of thermolysin treatment; see Corwin et al., Abstracts of the Association for Research in Otolaryngology, Volume 18, page 87 (1995). All edges were trimmed away and the central portion of the epithelium was cut into quarters. Epithelial cells from the infant rats were cultured in DMEM/F12 with 10% FBS (Gibco BRL, Grand Island, N.Y.), and 3 micrograms per milliliter (μg/ml) of mitosis tracer BrdU (Aldrich Chemicals, Milwaukee, Wis.) for seventy-two hours, with or without 50 nanograms per milliliter (ng/ml) of the peptide of SEQ ID NO: 1 or 50 ng/ml of recombinant derived FGF-10, recombinant derived FGF-16, recombinant derived ciliary-derived neurotrophic factor (CNTF), recombinant derived neurotrophic growth facor (NGF), recombinant derived glial-derived neurotrophic factor (GDNF), recombinant derived keratinocyte growth factor (KGF), or a control (no growth factor present). The experiment was ended by fixing in 4% paraformaldehyde for one hour.\nAfter several washes, the explants were immunostained for calretinin (a vestibular organ hair cell marker) using rabbit antiserum (SWant Swiss Antibodies, Belinzona, Switzerland), diluted 1:10,000. The secondary antibody was goat anti-rabbit immunoglobulin conjugated to biotin, diluted 1:1,000. Extensive washes were followed by incubating the explants with egg white avidin conjugated to Cy3, diluted 1:1,000. The explants were fixed again with paraformaldehyde as described above, then processed for BrdU immunostaining (a measure of cell proliferation) using standard immunostaining protocols. The mouse monoclonal ant-BrdU antibody was obtained from Caltag Laboratories of San Franscisco, Calif. The secondary antibody, a goat anti-mouse conjugated to FITC, was obtained from Antibodies, Inc. of Davis, Calif."}
{"molecule": "B1", "values": [{"measurement": "number of BrdU-positive nuclei per piece of epithelium", "result": "37±13"}]}
{"molecule": "B2", "values": [{"measurement": "number of BrdU-positive nuclei per piece of epithelium", "result": "11±4"}]}
{"molecule": "B3", "values": [{"measurement": "number of BrdU-positive nuclei per piece of epithelium", "result": "89±16"}]}
{"molecule": "B4", "values": [{"measurement": "number of BrdU-positive nuclei per piece of epithelium", "result": "23±3"}]}
